{"source": "patent US8828380B2", "about": "“Method for the treatment of pulmonary disease and method of producing proteins of use therein” (The United States of America, as represented by the …, priority 2009, dated 2014)", "key": {"[1]": {"assay": "Non-enzymatic conversion of ADP-ribosylarginine to ornithine, HPLC and amino acid analysis", "assay_type": "physicochemical"}, "arginase": {"biological_target": "T1, arginase (Homo sapiens, UniProt P05089)", "T1 sequence (P05089 1-322)": "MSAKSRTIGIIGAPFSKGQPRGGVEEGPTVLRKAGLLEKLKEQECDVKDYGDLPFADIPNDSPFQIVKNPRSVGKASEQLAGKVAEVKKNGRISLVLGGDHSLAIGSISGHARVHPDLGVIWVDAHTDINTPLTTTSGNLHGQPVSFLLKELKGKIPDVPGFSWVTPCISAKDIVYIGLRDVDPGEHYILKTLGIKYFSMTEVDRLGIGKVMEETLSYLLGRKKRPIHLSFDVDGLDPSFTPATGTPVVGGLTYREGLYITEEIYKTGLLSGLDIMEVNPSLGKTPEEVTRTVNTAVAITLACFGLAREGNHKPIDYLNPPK", "assay": "Incubation with manganese-activated arginase, products by amino acid analysis and MS", "assay_type": "biochemical", "details": "manganese-activated arginase 0.7 U, pH 9.5, 10 minutes, 37° C.", "experimental": "Arginase, found predominantly in liver, catalyzes the hydrolysis of arginine to ornithine in the urea cycle. The enzyme has been reported to require free arginine (Jenkinson et al., Comp. Biochem. Physiol. B Biochem. Mol. Biol. 114:107-132, 1996). HNP-1 was tested as a potential substrate for arginase. HNP-1 (1.4 nmol), mono-ADP-ribosylated-HNP-1 (1 nmol), ADP-ribosylarginine (18 μM), and arginine (5 mM) were each incubated with manganese-activated arginase (0.7 U) at pH 9.5 in 200 μl for 10 minutes at 37° C."}, "ART1": {"biological_target": "T2, ART1 (Mus musculus, UniProt Q60935)", "T2 sequence (Q60935 23-290 limits assumed)": "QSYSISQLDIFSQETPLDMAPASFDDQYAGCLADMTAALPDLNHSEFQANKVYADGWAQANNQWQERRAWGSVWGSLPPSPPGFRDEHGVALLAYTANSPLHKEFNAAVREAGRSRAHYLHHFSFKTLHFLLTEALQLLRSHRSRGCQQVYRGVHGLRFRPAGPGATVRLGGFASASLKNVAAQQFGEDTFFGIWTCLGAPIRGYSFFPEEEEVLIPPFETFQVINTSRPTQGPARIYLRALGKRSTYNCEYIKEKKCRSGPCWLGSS", "assay": "Substrate test for ART1"}, "[2]": {"assay": "Incubation of HPLC-purified mono- and di-ADP-ribosyl-HNP-1 at pH 7 or 9, products analysed by HPLC/MS", "assay_type": "physicochemical", "experimental": "HNP-1 was incubated overnight at 30° C. with 5 mM NAD in 150 μl of 50 mM potassium phosphate, pH 7.5 and ART1. Reactions were terminated by addition of guanidine HCl to a final concentration of 6 M. Products were separated by HPLC and analyzed by mass spectrometry (MS).\nHNP-1 was reduced, cleaved by trypsin, and analyzed by reverse phase chromatography-mass spectrometry as described (Paone et al., Proc. Natl. Acad. Sci. USA 99:8231-8235, 2002), except that the reverse phase column was a Zorbax 300SB-C18, 2.1×50 mm, 3.5 micron, and the mass spectrometer was an Agilent model G1969 with a time of flight detector. Mass spectra were deconvoluted with Agilent software MassHunter version 2, and the fraction of each species was calculated from the areas of the deconvoluted peaks.\nTo verify that ART1 (or an enzymatic contaminant) was not required for ornithine formation, HPLC-purified mono- and di-modified HNP-1 were incubated for 24 hours at 37° C. at pH 7 or 9 and the reaction products were analyzed by HPLC (FIG. 4, Table 1). Di-ADP-ribosylated-HNP-1 degraded to mono-ADP-ribosylated-HNP-1-ornithine of 3940 molecular mass at pH 7 and the amount was greater at pH 9 (FIG. 4A-D). About 50% of di-ADP-ribosylated-HNP-1 degraded to mono-ADP-ribosylated-HNP-1-ornithine at pH 9, with ADP-ribosylated arginine 14 and ornithine at position 24 or ADP-ribosylated arginine 24 and ornithine at position 14."}}, "data": [{"compound": "NC(=NCCC[C@H](N)C(=O)O)N[C@H]1O[C@H](COP(=O)(O)OP(=O)(O)OC[C@H]2O[C@@H](n3cnc4c(N)ncnc43)[C@H](O)[C@@H]2O)[C@@H](O)[C@H]1O", "note": "[ADP-ribosylarginine]", "values": [{"measurement": "product of incubation in acid", "setting": "[1]; 6N HCl, 37° C., 24 hours", "result": "Arginine was cleaved"}, {"measurement": "amount of ornithine generated", "setting": "[1]; incubation at pH 7 or pH 8", "result": "less than at pH 9"}, {"measurement": "maximal amount of ornithine, of initial ADP-ribosylarginine", "setting": "[1]; pH 9, 24 hours, 37° C., amino acid analysis without prior acid hydrolysis", "result": 21, "unit": "%"}, {"measurement": "ornithine formation by arginase (substrate or not)", "setting": "arginase", "result": "ornithine only in the reaction that contained free arginine"}]}, {"compound": "N=C(N)NCCCCN", "note": "[agmatine]", "values": [{"measurement": "substrate for ART1", "setting": "ART1", "result": "served as substrates"}]}, {"compound": "N=C(N)NCCC[C@H](N)C(=O)O", "note": "[arginine]", "values": [{"measurement": "substrate for ART1", "setting": "ART1", "result": "served as substrates"}, {"measurement": "ornithine formation after incubation with free ADP-ribose", "setting": "[1]; 24 hours, 37° C., 20 mM potassium phosphate pH 9", "result": "No ornithine was identified"}, {"measurement": "ornithine formation by arginase (substrate or not)", "setting": "arginase", "result": "ornithine only in the reaction that contained free arginine"}]}, {"compound": "NCCC[C@H](N)C(=O)O", "note": "[ornithine, Ornithine]", "values": [{"measurement": "substrate for ART1", "setting": "ART1", "result": "did not"}]}, {"compound": "ADPR-HNP: HNP-1 ADP-ribosylated on arginine 14", "values": [{"measurement": "ornithine formation by arginase (substrate or not)", "setting": "arginase", "result": "ornithine only in the reaction that contained free arginine"}, {"measurement": "percent of species ADPR-HNP at the end of the incubation", "setting": "[2]; pH 7, time 0 h", "result": 100, "unit": "%"}, {"measurement": "percent of species ADPR-HNP-Orn at the end of the incubation", "setting": "[2]; pH 7, time 0 h", "result": 0, "unit": "%"}, {"measurement": "percent of species Di-ADPR-HNP at the end of the incubation", "setting": "[2]; pH 7, time 0 h", "result": 0, "unit": "%"}, {"measurement": "percent of species Di-Orn-HNP at the end of the incubation", "setting": "[2]; pH 7, time 0 h", "result": 0, "unit": "%"}, {"measurement": "percent of species HNP at the end of the incubation", "setting": "[2]; pH 7, time 0 h", "result": 0, "unit": "%"}, {"measurement": "percent of species HNP-Orn at the end of the incubation", "setting": "[2]; pH 7, time 0 h", "result": 0, "unit": "%"}, {"measurement": "percent of species ADPR-HNP at the end of the incubation", "setting": "[2]; pH 7, time 24 h", "result": "82 ± 13", "unit": "%"}, {"measurement": "percent of species ADPR-HNP-Orn at the end of the incubation", "setting": "[2]; pH 7, time 24 h", "result": 0, "unit": "%"}, {"measurement": "percent of species Di-ADPR-HNP at the end of the incubation", "setting": "[2]; pH 7, time 24 h", "result": 0, "unit": "%"}, {"measurement": "percent of species Di-Orn-HNP at the end of the incubation", "setting": "[2]; pH 7, time 24 h", "result": 0, "unit": "%"}, {"measurement": "percent of species HNP at the end of the incubation", "setting": "[2]; pH 7, time 24 h", "result": 0, "unit": "%"}, {"measurement": "percent of species HNP-Orn at the end of the incubation", "setting": "[2]; pH 7, time 24 h", "result": "18 ± 13", "unit": "%"}, {"measurement": "percent of species ADPR-HNP at the end of the incubation", "setting": "[2]; pH 9, time 0 h", "result": 100, "unit": "%"}, {"measurement": "percent of species ADPR-HNP-Orn at the end of the incubation", "setting": "[2]; pH 9, time 0 h", "result": 0, "unit": "%"}, {"measurement": "percent of species Di-ADPR-HNP at the end of the incubation", "setting": "[2]; pH 9, time 0 h", "result": 0, "unit": "%"}, {"measurement": "percent of species Di-Orn-HNP at the end of the incubation", "setting": "[2]; pH 9, time 0 h", "result": 0, "unit": "%"}, {"measurement": "percent of species HNP at the end of the incubation", "setting": "[2]; pH 9, time 0 h", "result": 0, "unit": "%"}, {"measurement": "percent of species HNP-Orn at the end of the incubation", "setting": "[2]; pH 9, time 0 h", "result": 0, "unit": "%"}, {"measurement": "percent of species ADPR-HNP at the end of the incubation", "setting": "[2]; pH 9, time 24 h", "result": "61 ± 9", "unit": "%"}, {"measurement": "percent of species ADPR-HNP-Orn at the end of the incubation", "setting": "[2]; pH 9, time 24 h", "result": 0, "unit": "%"}, {"measurement": "percent of species Di-ADPR-HNP at the end of the incubation", "setting": "[2]; pH 9, time 24 h", "result": 0, "unit": "%"}, {"measurement": "percent of species Di-Orn-HNP at the end of the incubation", "setting": "[2]; pH 9, time 24 h", "result": 0, "unit": "%"}, {"measurement": "percent of species HNP at the end of the incubation", "setting": "[2]; pH 9, time 24 h", "result": 0, "unit": "%"}, {"measurement": "percent of species HNP-Orn at the end of the incubation", "setting": "[2]; pH 9, time 24 h", "result": "39 ± 9", "unit": "%"}]}]}
